This passage reports Fad (adhesion force, mode of the lognormal distribution) and Fad (adhesion force) results from PMC3760192.

What all share (test): AFM force spectroscopy
The target of test [1] is MBP-I^N of the Thermosynechococcus vulcanus (Tvu) split intein (Thermosynechococcus vulcanus).
Test [2] deals with MBP-I^N of the Nostoc species PCC7120 (Nsp) split intein (Nostoc species PCC7120).
Test [3] deals with MBP-I^N of the Oscillatoria limnetica (Oli) split intein (Oscillatoria limnetica).
In a further test the target is MBP-CBD protein.

On to “cleaved CBD-I^C of the Thermosynechococcus vulcanus (Tvu) split intein (domain or fragment)”, for which the Fad (adhesion force, mode of the lognormal distribution) in test [1] is 53 pN; in test [2] it was 49 pN; in test [3], 52 pN.

“MBP-I^C-CBD of the Thermosynechococcus vulcanus (Tvu) split intein” gave a Fad (adhesion force) with MBP-CBD protein of less than 30 pN.

The substance “MBP-I^C-CBD of the Oscillatoria limnetica (Oli) split intein” registered a Fad (adhesion force) with MBP-CBD protein of less than 30 pN.

For the substance “MBP-I^C-CBD of the Nostoc species PCC7120 (Nsp) split intein”, in the test with MBP-CBD protein, the Fad (adhesion force) is less than 30 pN.

On to “cleaved CBD-I^C of the Nostoc species PCC7120 (Nsp) split intein (domain or fragment)”, for which the Fad (adhesion force, mode of the lognormal distribution) in test [1] came to 52 pN; in test [2], 52 pN; in test [3] it was 60 pN.

In the case of “cleaved CBD-I^C of the Oscillatoria limnetica (Oli) split intein (domain or fragment)”, the Fad (adhesion force, mode of the lognormal distribution) in test [1], in test [2] and in test [3] was 52 pN each time.
